From patent US20230331872A1 (CYTOIMMUNE THERAPEUTICS, published 2023) come the findings set out here.

For the assay, the target named is T1, Recombinant Human NKG2D, amino acid Phe78-Val216 (Accession #P26718) (Biolegends, #781908) (human, UniProt P26718 78-216).
T1 construct: range 78-216; Bought reagent; also called NKG2D-fusion protein; CD314
T1 sequence (looked up): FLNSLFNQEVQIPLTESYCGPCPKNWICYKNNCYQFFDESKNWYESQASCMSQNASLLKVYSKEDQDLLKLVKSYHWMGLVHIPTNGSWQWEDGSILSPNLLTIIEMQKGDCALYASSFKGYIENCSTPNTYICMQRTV
Description: home developed BiKE detection ELISA with NKG2D-fusion protein coated plate, 72 h serum-free NK cell supernatant. On the procedure:
An unique ELISA assay was developed for detecting the concentration of full human Source Scfv-anti NKG2D and GPRCSD. Firstly, the Nunc MaxiSorp™ flat-bottom plate (Invitrogen™, 44-2404-21) was coated with 100 ng/well of Recombinant Human NKG2D, amino acid Phe78-Va1216 (Accession #P26718) (Biolegends, #781908) dissolved in 100 μl of DPBS (Gibco, 14190) at 4 degree overnight. After washing with 1x DPBS buffer with final 0.05% Tween 20 and blocking with 1% BSA in 1x DPBS buffer with final 0.05% Tween 20, 100 μl of samples and standard in blocking buffer were added to each well. The standard used in this assay was a human anti human NKG2D antibody, CD314 (NKG2D)-PE, human, Cat: 130-111-645, recombinant human IgG1, Miltenyi Biotec GmbH (0.25 mg/ml). For detection, a Biotinylated Goat anti-Human IgG (H+L) Cross-Adsorbed Secondary Antibody and HRP-Conjugated Streptavidin (Thermo Scientific™, N100), as well as 1-Step™ Ultra TMB-ELISA Substrate Solution, (Bio-Rad #34029). Stop buffer used was 1 M H₃PO₄.
0.5-1×10⁶ transduced NK cells (FIG. 39) were seeded and cultured in serum free media for 72 hours. Supernatant was subsequently collected, centrifuged, and immediately added to IL-15 pre-coated ELISA plate (R&D Systems S1500) and home developed BiKE detection ELISA with NKG2D-fusion protein coated plate. […] Data present here was as average concentration from four independent donors as mean±SD.
A general note: An ELISA detects its analyte on a solid surface through an enzyme-linked reagent.

B1: GPRC5D-NKG2D BiKE (GN1-BiKE) secreted from NK cells transduced with P61: GN1-BiKE BCMA-CAR--SIL-15-RQR8 (bispecific antibody, human IgG4 S228P, F234A L235A, N297Q)
chain: DIQMTQSPSSLSASVGDRVTITCKASQNVATHVGWYQQKPGKAPKRLIYSASYRYSGVPSRFSGSGSGTEFTLTISNLQPEDFATYYCQQYNRYPYTFGQGTKLEIKGGGGSGGGGSGGGGSQVQLVQSGAEVKKPGASVKVSCKASGYSFTGYTMNWVRQAPGQGLEWMGLINPYNSDTNYAQKLQGRVTMTTDTSTSTAYMELRSLRSDDTAVYYCARVALRVALDYWGQGTLVTVSSPSGQAGAAASESLFVSNHAYQSALTQPASVSGSPGQSITISCSGSSSNIGNNAVNWYQQLPGKAPKLLIYYDDLLPSGVSDRFSGSKSGTSAFLAISGLQSEDEADYYCAAWDDSLNGPVFGGGTKLTVLGGGGSGGGGSGGGGSQVQLVESGGGLVKPGGSLRLSCAASGFTFSSYGMHWVRQAPGKGLEWVAFIRYDGSNKYYADSVKGRFTISRDNSKNTLYLQMNSLRAEDTAVYYCAKDRGLGDGTYFDYWGQGTTVTVSSESKYGPPCPPCPAPEAAGGPSVFLFPPKPKDTLMISRTPEVTCVVVDVSQEDPEVQFNWYVDGVEVHNAKTKPREEQFQSTYRVVSVLTVLHQDWLNGKEYKCKVSNKGLPSSIEKTISKAKGQPREPQVYTLPPSQEEMTKNQVSLTCLVKGFYPSDIAVEWESNGQPENNYKTTPPVLDSDGSFFLYSRLTVDKSRWQEGNVFSCSVMHEALHNHYTQKSLSLSLGK
notes: also called IL2 SP BiKE; GPRC5D-NKG2D BiKE-BCMA CAR-SIL-15-RQR8-P61
Consider B1, for which the binding result is given as “binds”.

B2: NKG2D-GPRC5D BiKE (NG2-BiKE) secreted from NK cells transduced with P62: NG2-BiKE BCMA-CAR--SIL-15-RQR8 (bispecific antibody, human IgG4 S228P, F234A L235A, N297Q)
chain: QVQLVESGGGLVKPGGSLRLSCAASGFTFSSYGMHWVRQAPGKGLEWVAFIRYDGSNKYYADSVKGRFTISRDNSKNTLYLQMNSLRAEDTAVYYCAKDRGLGDGTYFDYWGQGTTVTVSSGGGGSGGGGSGGGGSQSALTQPASVSGSPGQSITISCSGSSSNIGNNAVNWYQQLPGKAPKLLIYYDDLLPSGVSDRFSGSKSGTSAFLAISGLQSEDEADYYCAAWDDSLNGPVFGGGTKLTVLPSGQAGAAASESLFVSNHAYQVQLVQSGAEVKKPGASVKVSCKASGYSFTGYTMNWVRQAPGQGLEWMGLINPYNSDTNYAQKLQGRVTMTTDTSTSTAYMELRSLRSDDTAVYYCARVALRVALDYWGQGTLVTVSSGGGGSGGGGSGGGGSDIQMTQSPSSLSASVGDRVTITCKASQNVATHVGWYQQKPGKAPKRLIYSASYRYSGVPSRFSGSGSGTEFTLTISNLQPEDFATYYCQQYNRYPYTFGQGTKLEIKESKYGPPCPPCPAPEAAGGPSVFLFPPKPKDTLMISRTPEVTCVVVDVSQEDPEVQFNWYVDGVEVHNAKTKPREEQFQSTYRVVSVLTVLHQDWLNGKEYKCKVSNKGLPSSIEKTISKAKGQPREPQVYTLPPSQEEMTKNQVSLTCLVKGFYPSDIAVEWESNGQPENNYKTTPPVLDSDGSFFLYSRLTVDKSRWQEGNVFSCSVMHEALHNHYTQKSLSLSLGK
notes: also called IL2 SP BiKE; NKG2D-GPRC5D BiKE-BCMA CAR-SIL-15-RQR8-P62
As for B2, the binding result is “binds”.
